Patent publication US20260176254A1, “INHIBITORS OF PROSTATE SPECIFIC MEMBRANE ANTIGEN AND USE THEREOF” (SHANGHAI SINOTAU BIOTECH. CO., LTD, priority 2023, published 2026)

Key:
[1] = target: T1, recombinant human PSMA (rhPSMA) (Homo sapiens, UniProt Q04609); experiment: Naaladase assay (fluorescence-based Naaladase activity inhibition); assay type: biochemical; settings: rhPSMA 0.4 μg/mL, substrate N-Acetyl-Asp-Glu 40 μM, 37° C. one hour
T1 construct: purchased Sino Biological
Method: Naaladase activity inhibition was determined using a fluorescence-based assay. Briefly, the solution containing the substrate N-Acetyl-Asp-Glu (Sigma-Aldrich) at 40 μM and the compound at concentrations from 0.15 nM to 1000 nM was mixed at equal volume with recombinant human PSMA (rhPSMA, Sino Biological) at 0.4 μg/mL, in assay buffer (50 mM HEPES, 100 mM NaCl, pH 7.5). The enzymatic reaction was proceeded by incubation at 37° C. for one hour and then stopped by heating at 95° C. for 5 minutes. A solution of 15 mM ortho-phthaldialdehyde (Sigma-Aldrich) was added to all vials and incubated for 10 min at ambient temperature. The reaction solutions were loaded onto a 96-well flat clear bottom black microplates (Corning) and read at excitation and emission wavelengths of 330 and 450 nm, respectively, using a microplate reader (Tecan). The data were analyzed by a one-site total binding regression algorithm of GraphPad Prism (GraphPad Software).

[2] = Tissue biodistribution in 22Rv1 tumor mouse model; design: species or system mice; settings: male, nude, in vivo, iv, total radioactivity
From the text: (§1) LnCAP and 22RV1 CDX xenograft tumor models were generated by inoculating 5×10^6 cells/site subcutaneously in male SCID or nude mice (Vital River), respectively. Animals were housed according to IACUC guidance and had accessed to food and water ad libitium. Animals were used for biodistribution study when the tumor dimensions reached around 0.2-0.3 cm^3. […] At each tome point, animals were sacrificed and tissues were collected, weighted, and subjected to radioactivity measurements using gamma counter. Radioactivity in the tissues was presented in % ID/g (percent of injected dose per gram).

[3] = Tissue biodistribution in LnCAP tumor mouse model; design: species or system mice; settings: male, SCID, in vivo, iv, total radioactivity
From the text: as §1

[4] = Tissue biodistribution: Salivary Gland

T1 sequence (Q04609 whole entry): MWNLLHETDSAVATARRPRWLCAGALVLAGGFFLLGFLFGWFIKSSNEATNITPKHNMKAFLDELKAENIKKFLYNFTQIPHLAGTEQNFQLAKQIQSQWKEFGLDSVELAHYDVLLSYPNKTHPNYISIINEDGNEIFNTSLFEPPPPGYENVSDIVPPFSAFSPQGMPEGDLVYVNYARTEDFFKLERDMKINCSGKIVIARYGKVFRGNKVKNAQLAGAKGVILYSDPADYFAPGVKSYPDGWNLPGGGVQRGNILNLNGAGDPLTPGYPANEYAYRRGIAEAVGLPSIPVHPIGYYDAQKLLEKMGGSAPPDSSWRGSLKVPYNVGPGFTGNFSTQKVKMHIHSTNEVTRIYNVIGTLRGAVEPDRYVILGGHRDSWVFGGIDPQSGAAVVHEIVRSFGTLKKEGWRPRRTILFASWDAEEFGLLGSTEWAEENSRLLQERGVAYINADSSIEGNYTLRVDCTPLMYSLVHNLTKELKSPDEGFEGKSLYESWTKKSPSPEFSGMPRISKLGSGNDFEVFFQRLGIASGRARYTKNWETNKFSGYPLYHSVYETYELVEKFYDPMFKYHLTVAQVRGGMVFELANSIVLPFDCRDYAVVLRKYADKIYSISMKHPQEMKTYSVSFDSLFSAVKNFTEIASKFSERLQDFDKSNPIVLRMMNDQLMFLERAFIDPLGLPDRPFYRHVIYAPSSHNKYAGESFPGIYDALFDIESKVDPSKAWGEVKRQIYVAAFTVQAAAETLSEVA

**Q.** Which IC50 [1] does the source give for `O=C(O)CC[C@H](NC(=O)N[C@@H](CCCCNC(=O)C(Cc1ccc2ccccc2c1)Nc1nnc(C23CCC(CNC(=O)CN4CCN(CC(=O)O)CCN(CC(=O)O)CCN(CC(=O)O)CC4)(CC2)CC3)o1)C(=O)O)C(=O)O` (single isomer, unassigned) [E18] here?
**A.** 3.7 nM

**Q.** Which IC50 [1] does the source give for `O=C(O)CCC[C@H](NC(=O)N[C@@H](CCCCNC(=O)[C@H](Cc1c2ccccc2cc2ccccc12)Nc1c(NC23CCC(CNC(=O)CN4CCN(CC(=O)O)CCN(CC(=O)O)CCN(CC(=O)O)CC4)(CC2)CC3)c(=O)c1=O)C(=O)O)C(=O)O` [E2, (S)-2-(3-((S)-5-((S)-3-(anthracen-9-yl)-2-((3,4-dioxo-2-((4-((2-(4,7,10-tris(carboxymethyl)-1,4,7,10-tetraazacyclododecan-1-yl)acetamido)methyl)bicyclo[2.2.2]octan-1-yl)amino)cyclobut-1-en-1-yl)amino)propanamido)-1-carboxypentyl)ureido)hexanedioic acid] here?
**A.** 4 nM

**Q.** With `NC(=O)CN1CCN(CC(=O)O)CCN(CC(=O)NC23CCC(Nc4c(N[C@@H](Cc5c6ccccc6cc6ccccc56)C(=O)NCCCC[C@H](NC(=O)N[C@@H](CNC(=O)C(=O)O)C(=O)O)C(=O)O)c(=O)c4=O)(CC2)CC3)CCN(CC(=O)O)CC1` [E16] as the compound, how does the IC50 [1] read?
**A.** 3.5 nM

**Q.** For `O=C(O)CC[C@H](NC(=O)N[C@@H](CCCCNC(=O)[C@H](Cc1ccc2ccccc2c1)NC(=O)[C@H]1CC[C@H](CNC(=O)CN2CCN(CC(=O)O)CCN(CC(=O)O)CCN(CC(=O)O)CC2)CC1)C(=O)O)C(=O)O` [[^177Lu]Lu-PSMA-617, metal not drawn, reference compound], which tissue uptake dose at 2 h [2] is on record?
**A.** 4.15 ± 0.06 %ID

**Q.** And the tissue uptake dose at 24 h [2]?
**A.** 1.21 ± 0.03 %ID

**Q.** And the tissue uptake at 2 h ([2]; Tissue biodistribution: Blood)?
**A.** 0.08 ± 0.03 %ID/g

**Q.** And the tissue uptake at 6 h ([2]; Tissue biodistribution: Blood)?
**A.** 0.03 ± 0.01 %ID/g

**Q.** What about the tissue uptake at 24 h ([2]; Tissue biodistribution: Bone) of the same compound?
**A.** 0.11 ± 0.03 %ID/g

**Q.** And the tissue uptake at 2 h ([2]; Tissue biodistribution: Heart)?
**A.** 0.1 ± 0.02 %ID/g

**Q.** And the tissue uptake at 6 h ([2]; Tissue biodistribution: Heart)?
**A.** 0.06 ± 0.01 %ID/g

**Q.** What about the tissue uptake at 24 h ([2]; Tissue biodistribution: Heart) of the same compound?
**A.** 0.05 ± 0.01 %ID/g

**Q.** And the tissue uptake at 72 h ([2]; Tissue biodistribution: Heart)?
**A.** 0.05 ± 0.01 %ID/g

**Q.** And the tissue uptake at 168 h ([2]; Tissue biodistribution: Heart)?
**A.** 0.06 ± 0.01 %ID/g

**Q.** And the tissue uptake at 2 h ([2]; Tissue biodistribution: Kidney)?
**A.** 53 ± 27.4 %ID/g

**Q.** What about the tissue uptake at 6 h ([2]; Tissue biodistribution: Kidney) of the same compound?
**A.** 12.3 ± 6.38 %ID/g

**Q.** What about the tissue uptake at 24 h ([2]; Tissue biodistribution: Kidney) of the same compound?
**A.** 1.35 ± 0.48 %ID/g

**Q.** And the tissue uptake at 168 h ([2]; Tissue biodistribution: Kidney)?
**A.** 0.08 ± 0.03 %ID/g

**Q.** And the tissue uptake at 2 h ([2]; Tissue biodistribution: Liver)?
**A.** 0.09 ± 0.02 %ID/g

**Q.** And the tissue uptake at 6 h ([2]; Tissue biodistribution: Liver)?
**A.** 0.08 ± 0.02 %ID/g

**Q.** And the tissue uptake at 24 h ([2]; Tissue biodistribution: Liver)?
**A.** 0.05 ± 0.01 %ID/g

**Q.** What about the tissue uptake at 72 h ([2]; Tissue biodistribution: Liver) of the same compound?
**A.** 0.04 ± 0.01 %ID/g

**Q.** And the tissue uptake at 168 h ([2]; Tissue biodistribution: Liver)?
**A.** 0.03 ± 0.01 %ID/g

**Q.** And the tissue uptake at 2 h ([2]; Tissue biodistribution: Lung)?
**A.** 0.29 ± 0.05 %ID/g

**Q.** And the tissue uptake at 24 h ([2]; Tissue biodistribution: Lung)?
**A.** 0.06 ± 0.01 %ID/g

**Q.** And the tissue uptake at 72 h ([2]; Tissue biodistribution: Lung)?
**A.** 0.05 ± 0.01 %ID/g

**Q.** What about the tissue uptake at 168 h ([2]; Tissue biodistribution: Lung) of the same compound?
**A.** 0.05 %ID/g

**Q.** And the tissue uptake at 2 h ([2]; Tissue biodistribution: Muscle)?
**A.** 0.09 ± 0.03 %ID/g

**Q.** And the tissue uptake at 6 h ([2]; Tissue biodistribution: Muscle)?
**A.** 0.05 ± 0.02 %ID/g

**Q.** And the tissue uptake at 6 h [2, 4]?
**A.** 0.1 ± 0.02 %ID/g

**Q.** And the tissue uptake at 24 h [2, 4]?
**A.** 0.06 ± 0.01 %ID/g

**Q.** What about the tissue uptake at 72 h [2, 4] of the same compound?
**A.** 0.05 ± 0.02 %ID/g

**Q.** And the tissue uptake at 168 h [2, 4]?
**A.** 0.05 ± 0.01 %ID/g

**Q.** What about the tissue uptake at 2 h ([2]; Tissue biodistribution: Spleen) of the same compound?
**A.** 0.78 ± 0.11 %ID/g

**Q.** And the tissue uptake at 72 h ([2]; Tissue biodistribution: Spleen)?
**A.** 0.11 ± 0.04 %ID/g

**Q.** What about the tissue uptake at 168 h ([2]; Tissue biodistribution: Spleen) of the same compound?
**A.** 0.09 ± 0.03 %ID/g

**Q.** What about the tissue uptake at 2 h ([2]; Tissue biodistribution: Tumor) of the same compound?
**A.** 11.4 ± 2.27 %ID/g

**Q.** And the tissue uptake at 6 h ([2]; Tissue biodistribution: Tumor)?
**A.** 12.6 ± 3.23 %ID/g

**Q.** And the tissue uptake at 24 h ([2]; Tissue biodistribution: Tumor)?
**A.** 9.84 ± 1.45 %ID/g

**Q.** And the tissue uptake at 72 h ([2]; Tissue biodistribution: Tumor)?
**A.** 5.57 ± 0.6 %ID/g

**Q.** And the tissue uptake at 168 h ([2]; Tissue biodistribution: Tumor)?
**A.** 0.96 ± 0.5 %ID/g

**Q.** And the tissue uptake dose at 2 h [3]?
**A.** 8.53 ± 0.64 %ID

**Q.** What about the tissue uptake dose at 6 h [3] of the same compound?
**A.** 3.71 ± 1.76 %ID

**Q.** What about the tissue uptake dose at 24 h [3] of the same compound?
**A.** 4.44 ± 3.53 %ID

**Q.** What about the tissue uptake dose at 72 h [3] of the same compound?
**A.** 1.03 ± 0.18 %ID

**Q.** What about the tissue uptake dose at 168 h [3] of the same compound?
**A.** 0.73 ± 0.03 %ID

**Q.** What about the tissue uptake at 2 h ([3]; Tissue biodistribution: Blood) of the same compound?
**A.** 0.38 ± 0.05 %ID/g

**Q.** What about the tissue uptake at 6 h ([3]; Tissue biodistribution: Blood) of the same compound?
**A.** 0.08 ± 0.04 %ID/g

**Q.** What about the tissue uptake at 24 h ([3]; Tissue biodistribution: Blood) of the same compound?
**A.** 0.03 ± 0.01 %ID/g

**Q.** And the tissue uptake at 6 h ([3]; Tissue biodistribution: Bone)?
**A.** 0.2 ± 0.01 %ID/g

**Q.** And the tissue uptake at 2 h ([3]; Tissue biodistribution: Gland)?
**A.** 0.56 ± 0.04 %ID/g

**Q.** And the tissue uptake at 24 h ([3]; Tissue biodistribution: Gland)?
**A.** 0.07 %ID/g

**Q.** And the tissue uptake at 72 h ([3]; Tissue biodistribution: Gland)?
**A.** 0.06 %ID/g

**Q.** What about the tissue uptake at 168 h ([3]; Tissue biodistribution: Gland) of the same compound?
**A.** 0.06 ± 0.01 %ID/g

**Q.** And the tissue uptake at 24 h ([3]; Tissue biodistribution: Heart)?
**A.** 0.06 ± 0.02 %ID/g

**Q.** And the tissue uptake at 72 h ([3]; Tissue biodistribution: Heart)?
**A.** 0.06 ± 0.01 %ID/g

**Q.** And the tissue uptake at 168 h ([3]; Tissue biodistribution: Heart)?
**A.** 0.07 %ID/g

**Q.** And the tissue uptake at 2 h ([3]; Tissue biodistribution: Kidney)?
**A.** 66.9 ± 96.1 %ID/g

**Q.** And the tissue uptake at 6 h ([3]; Tissue biodistribution: Kidney)?
**A.** 45.6 ± 37.1 %ID/g

**Q.** And the tissue uptake at 24 h ([3]; Tissue biodistribution: Kidney)?
**A.** 3.25 ± 1.04 %ID/g

**Q.** And the tissue uptake at 72 h ([3]; Tissue biodistribution: Kidney)?
**A.** 0.96 ± 0.33 %ID/g

**Q.** And the tissue uptake at 2 h ([3]; Tissue biodistribution: Liver)?
**A.** 0.21 ± 0.03 %ID/g

**Q.** What about the tissue uptake at 6 h ([3]; Tissue biodistribution: Liver) of the same compound?
**A.** 0.11 ± 0.04 %ID/g

**Q.** What about the tissue uptake at 24 h ([3]; Tissue biodistribution: Liver) of the same compound?
**A.** 0.07 ± 0.02 %ID/g

**Q.** What about the tissue uptake at 72 h ([3]; Tissue biodistribution: Liver) of the same compound?
**A.** 0.06 ± 0.01 %ID/g

**Q.** What about the tissue uptake at 168 h ([3]; Tissue biodistribution: Liver) of the same compound?
**A.** 0.04 ± 0.01 %ID/g

**Q.** What about the tissue uptake at 2 h ([3]; Tissue biodistribution: Lung) of the same compound?
**A.** 0.91 ± 0.06 %ID/g

**Q.** And the tissue uptake at 24 h ([3]; Tissue biodistribution: Lung)?
**A.** 0.09 ± 0.02 %ID/g

**Q.** What about the tissue uptake at 72 h ([3]; Tissue biodistribution: Lung) of the same compound?
**A.** 0.05 ± 0.01 %ID/g

**Q.** What about the tissue uptake at 168 h ([3]; Tissue biodistribution: Lung) of the same compound?
**A.** 0.05 ± 0.01 %ID/g

**Q.** And the tissue uptake at 6 h ([3]; Tissue biodistribution: Muscle)?
**A.** 0.08 ± 0.02 %ID/g

**Q.** What about the tissue uptake at 168 h ([3]; Tissue biodistribution: Muscle) of the same compound?
**A.** 0.03 ± 0.02 %ID/g

**Q.** What about the tissue uptake at 2 h ([3]; Tissue biodistribution: Spleen) of the same compound?
**A.** 0.7 ± 0.21 %ID/g

**Q.** What about the tissue uptake at 6 h ([3]; Tissue biodistribution: Spleen) of the same compound?
**A.** 0.36 ± 0.04 %ID/g

**Q.** And the tissue uptake at 2 h ([3]; Tissue biodistribution: Tumor)?
**A.** 30.2 ± 5.26 %ID/g

**Q.** What about the tissue uptake at 6 h ([3]; Tissue biodistribution: Tumor) of the same compound?
**A.** 27.4 ± 7.91 %ID/g

**Q.** What about the tissue uptake at 24 h ([3]; Tissue biodistribution: Tumor) of the same compound?
**A.** 19.8 ± 4.66 %ID/g

**Q.** And the tissue uptake at 72 h ([3]; Tissue biodistribution: Tumor)?
**A.** 11.9 ± 1.2 %ID/g

**Q.** And the tissue uptake at 168 h ([3]; Tissue biodistribution: Tumor)?
**A.** 4.74 ± 1.95 %ID/g
